Measurements published in patent publication US7833979B2, “Toxin peptide therapeutic agents” (Amgen Inc., priority 2005, dated 2010).

Legend:
[1] = biological target: T1, Kv1.3 (Homo sapiens, UniProt P22001); experiment: IonWorks Quattro automated (population patch clamp) electrophysiology on CHO-Kv1.3 cells; assay type: cell-based; design: expressed in transfected cells; details: IonWorks planar patch clamp, average IC50, read-out: Kv1.3 IC50 by IWQ
Experimental: Assay Plate preparation for electrophysiology. […] Before experiments, each sample was thawed at room temperature and an aliquot (70 to 80 μl) was transferred to a well in a 96-well polypropylene plate. In order to prepare the Assay Plate, several dilutions were made from the pharmacokinetic serum samples to give rise to Test Solutions. Dilutions of serum samples from the pharmacokinetic study were into 10% Phosphate Buffered Saline (PBS, with Ca^2+ and Mg^2+). […] Standard inhibition curves were also prepared in the Assay Plate.
Cell preparation for electrophysiology. CHO cells stably expressing the voltage-activated K^+ channel, Kv1.3 were plated in T-175 tissue culture flasks (at a density of 5×10^6) 2 days before experimentation and allowed to grow to around 95% confluence. […] The mean K^+ current amplitude was measured between 430 and 440 ms and the data were exported to a Microsoft Excel spreadsheet. The amplitude of the K^+ current in the presence of each concentration of the Test Solution or Standard was expressed as a percentage of the K^+ current in control conditions in the same well.
Standard inhibition curves were generated for each standard in various levels of rat serum and expressed as current percent of control (POC) versus log of nM concentration. […]

[2] = biological target: T1, Kv1.3; experiment: Whole cell patch clamp electrophysiology on HEK293 cells stably expressing human Kv1.3; assay type: cell-based
[3] = tested on: IL-2 and IFNg production from PMA and anti-CD3 stimulated human PBMCs; experiment: Inhibition of T cell cytokine production following PMA and anti-CD3 antibody stimulation of PBMCs; assay type: cell-based; details: 48 hr
Text: Inhibition of T cell cytokine production following PMA and anti-CD3 antibody stimulation of PBMCs. PBMC's were previously isolated from normal human donor Leukophoresis packs, purified by density gradient centrifugation (Ficoll Hypaque), cryopreserved in CPZ Cryopreservation Medium Complete (INCELL, MCPZF-100 plus 10% DMSO final). PBMC's were thawed (95% viability), washed, and seeded at 2×10^5 cells per well in culture medium (RPMI medium 1640; GIBCO) supplemented with 10% fetal calf serum, 100 U/ml penicillin, […] streptomycin 2 mM L-glutamine, 100 uM non-essential amino acids, and 20 uM 2-ME) in 96-well flat-bottom tissue culture plates. Cells were pre-incubated with serially diluted (100 nM-0.001 nM final) ShK[1-35], Fc-L10-ShK[1-35] or fc control for 90 min before stimulating for 48 hr with PMA/anti-CD3 (1 ng/ml and 50 ng/ml, respectively) in a final assay volume of 200 ul. Analysis of the assay samples was performed using the Meso Scale Discovery (MSD) SECTOR™ Imager 6000 (Meso Scale Discovery, Gaithersbury, Md.) to measure the IL-2 and IFNg protein levels by utilizing electrochemiluminescence (ECL). […] For each well, 20 ul of Ruthenium-labeled detection antibodies (1 ug/ml final in Antibody Dilution Buffer; […], TNF, IFNγ) and 130 ul of 2×MSD Read Buffer added, final volume 150 ul. […] The plates were then read on the SECTOR™ Imager 6000. […]

[4] = tested on: IL-2 and IFNg production from anti-CD3 and anti-CD28 stimulated human PBMCs; experiment: Inhibition of T cell cytokine production following anti-CD3 and anti-CD28 antibody stimulation of PBMCs; assay type: cell-based; details: 48 hours
Experimental: Inhibition of T cell cytokine production following Anti-CD3 and anti-CD28 antibody stimulation of PBMCs. PBMCs were previously isolated from normal human donor Leukopheresis packs, purified by density gradient centrifugation (Ficoll Hypaque), and cryopreserved using INCELL Freezing Medium. PBMCs were thawed (95% viability), washed, and seeded (in RPMI complete medium containing serum replacement, PSG) at 2×10^5 cells per well into 96-well flat bottom plates. Cells were pre-incubated with serially diluted (100 nM-0.003 nM final) ShK[1-35], Fc-L10-ShK[1-35], or Fc control for 1 hour before the addition of aCD3 and aCD28 (2.5 ng/mL and 100 ng/mL respectively) in a final assay volume of […]. Supernatants were collected after 48 hours, and analyzed using the Meso Scale Discovery (MSD) SECTOR™ Imager 6000 (Meso Scale Discovery, Gaithersbury, Md.) to measure the IL-2 and IFNg protein levels by utilizing electrochemiluminescence (ECL). […] of supernatant was added to the MSD multi-spot 96-well plates (each well containing IL-2, TNFa, and IFNg capture antibodies). The plates were sealed and incubated at room temperature on a plate shaker for 1 hour. Then […] of Ruthenium-labeled detection antibodies (1 ug/ml final of IL-2, TNFα, and IFNγ in Antibody Dilution Buffer) and […] of 2×MSD Read Buffer were added. The plates were sealed, covered with tin foil, and incubated at room temperature on a plate shaker for 1 hour. The plates were then read on the SECTOR™ Imager 6000. […] (POC=Percent Of Control of response in the absence of inhibitor).

[5] = tested on: T cell proliferation in human PBMCs; experiment: Inhibition of T cell proliferation (3H-thymidine incorporation) following anti-CD3 and anti-CD28 stimulation of PBMCs; assay type: cell-based; details: pre-incubation with anti-human CD32 blocking antibody
Text: Inhibition of T cell proliferation following anti-CD3 and anti-CD28 antibody stimulation of PBMCs. PBMC's were previously isolated from normal human donor Leukophoresis packs, purified by density gradient centrifugation (Ficoll Hypaque), cryopreserved in CPZ Cryopreservation Medium Complete (INCELL, MCPZF-100 plus 10% DMSO final). PBMC's were thawed (95% viability), washed, and seeded at 2×10^5 cells per well in culture medium (RPMI medium 1640; GIBCO) supplemented with 10% fetal calf serum, 100 U/ml penicillin, […] streptomycin, 2 mM L-glutamine, 100 μM non-essential amino acids, and 20 μM 2-ME) in 96-well flat-bottom tissue culture plates. Cells were pre-incubated with either anti-human CD32 (FcyRII) blocking antibody (per manufacturers instructions EASY SEP Human Biotin Selection Kit #18553, StemCell Technologies Vancouver, BC) or Fc-L10-ShK (100 nM-0.001 nM final) for 45 min. Fc-L10-ShK (100 nM-0.001 nM final) was then added to the cells containing anti-human CD32 blocking antibody while medium was added to the cells containing Fc-L10-ShK. Both sets were incubated for an additional 45 min before stimulating for 48 hr with aCD3/aCD28 (0.2 ng/ml and 100 ng/ml, respectively). Final assay volume was 200 ul. […] Cells were then harvested onto glass fiber filters and radioactivity was measured in a B-scintillation counter.

[6] = biological target: HEK 293 cells overexpressing human Kv1.3 (Homo sapiens, UniProt P22001); experiment: Immunohistochemistry analysis of binding to HEK 293 cells overexpressing human Kv1.3; details: 5 ug/ml, fixed cells, confocal microscopy
Experimental: HEK 293 cells overexpressing human Kv1.3 (HEK Kv1.3) were obtained from BioFocus plc (Cambridge, UK) and maintained per manufacturer's recommendation. The parental HEK 293 cell line was used as a control. Cells were plated on Poly-D-Lysine 24 well plates (#35-4414; Becton-Dickinson, Bedford, Mass.) and allowed to grow to approximately 70% confluence. HEK KV1.3 were plated at 0.5×10e5 cells/well in 1 ml/well of medium. HEK 293 cells were plated at a density of 1.5×10e5 cells/well in 1 ml/well of medium. […] Cells were stained by incubating with 0.2 ml/well of 5 ug/ml Fc-L10-ShK[1-35] in PBS/BSA for 30′ at room temperature. Fc-L10-ShK[1-35] was aspirated and then the cells were washed one time with PBS/0.5% BSA. Detection antibody (Goat F(ab)2 anti-human IgG-phycoerythrin; Southern Biotech Associates, Birmingham, Ala.) was added to the wells at 5 ug/ml in PBS/0.5% BSA and incubated for 30′ at room temperature. Wash cells once with PBS/0.5% BSA and examine using confocal microscopy (LSM 510 Meta Confocal Microscope; Carl Zeiss AG, Germany). […] In disease settings where activated T effector memory cells have been reported to overproduce Kv1.3, this reagent can find utility in both targeting these cells and in their detection.

[7] = tested on: upregulation of CD40L and IL-2R on CD4+ T cells in human whole blood; experiment: Ex vivo human whole blood assay, thapsigargin-induced cell surface CD40L and IL-2R on T cells (FACS); assay type: cell-based; details: 24 hours
[8] = biological target: fixed HEK 293 cells overexpressing Kv1.3 (Homo sapiens, UniProt P22001); details: whole cell immunoassay
Sequence of fixed HEK 293 cells overexpressing Kv1.3 (P22001 whole entry): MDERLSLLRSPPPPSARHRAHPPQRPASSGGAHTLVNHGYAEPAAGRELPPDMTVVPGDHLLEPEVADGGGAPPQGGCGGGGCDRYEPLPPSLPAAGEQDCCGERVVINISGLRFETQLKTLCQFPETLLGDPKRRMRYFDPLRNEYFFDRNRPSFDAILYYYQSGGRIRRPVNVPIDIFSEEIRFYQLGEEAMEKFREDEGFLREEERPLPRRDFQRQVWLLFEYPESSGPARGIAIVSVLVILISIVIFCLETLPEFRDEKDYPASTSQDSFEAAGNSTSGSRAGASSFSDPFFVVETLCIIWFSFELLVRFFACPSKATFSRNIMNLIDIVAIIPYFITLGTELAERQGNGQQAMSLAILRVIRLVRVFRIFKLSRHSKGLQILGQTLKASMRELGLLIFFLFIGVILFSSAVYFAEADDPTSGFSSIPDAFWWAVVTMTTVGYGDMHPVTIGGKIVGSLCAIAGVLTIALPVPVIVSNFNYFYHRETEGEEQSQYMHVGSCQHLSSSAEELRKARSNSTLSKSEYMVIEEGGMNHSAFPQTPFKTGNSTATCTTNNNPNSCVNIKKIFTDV
Experimental: Parent HEK 293 cells or HEK Kv1.3 cells were plated at 3×10e4 cells/well in poly-D-Lysine coated ninety-six well plates (#35-4461; Becton-Dickinson, Bedford, Mass.). Cells were fixed with formalin (Sigma HT50-1-1 Formalin solution, diluted 1:1 with PBS/0.5% BSA before use) by removing cell growth medium, adding 0.2 ml/well formalin solution and incubating at room temperature for 25 minutes and then washing one time with 100 ul/well of PBS/0.5% BSA. Wells were blocked by addition of 0.3 ml/well of BSA blocker (50-61-00; KPL 10% BSA Diluent/Blocking Solution, diluted 1:1 with PBS; KPL, Gaithersburg, Md.) followed by incubation at room temperature, with shaking, for 3 hr. Plates were washed 2 times with 1×KP Wash Buffer (50-63-00; KPL). Samples were diluted in Dilution Buffer (PBS/0.5% Tween-20) or Dilution Buffer with 1% Male Lewis Rat Serum (RATSRM-M; Bioreclamation Inc., Hicksville, N.Y.) and 0.1 ml/well was added to blocked plates, incubating for 1 hr at room temperature with shaking. […] Absorbance was read at 450 nm on a Molecular Devices SpectroMax 340 (Sunnyvale, Calif.).
Whole cell immunoassay was performed as above with the following modifications. […] Absorbances were read at 405 nm after stopping reactions by addition of 0.1 ml/well of 1% SDS.

T1 sequence (P22001 whole entry): as above
Sequence of HEK 293 cells overexpressing human Kv1.3 (P22001 whole entry): as above

Substance	IC50 [1] [nM]	IC50 ([2]; HEK293 cells stably expressing human Kv1.3, mean±s.e.m., estimated, read-out: IC50, block of outward potassium current) [nM]	Blockade of human Kv1.3 current (in words) ([2]; patch clamp electrophysiology)	Inhibition of IFNγ production [3]	Inhibition of IL-2 production [3]	Inhibition of IFNg production [4]	Inhibition of IL-2 production [4]	Effect of pre-blocking with anti-CD32 (FcR) blocking antibody on inhibition of T cell proliferation [5]	Binding (staining) to Kv1.3 overexpressing HEK 293 cells [6]	Binding (staining) to untransfected HEK 293 cells [6]	Thapsigargin-induced upregulation of CD40L on T cells in human whole blood [7]	Thapsigargin-induced upregulation of the IL-2R on T cells in human whole blood [7]	Binding response on fixed HEK 293 cells overexpressing Kv1.3 [8]	Binding response on untransfected HEK 293 cells [8]
E. coli-derived ShK[2-35]-L-Fc	4.9	–	–	–	–	–	–	–	–	–	–	–	–	–
Fc-L10-ShK[1-35]: Fc region of human IgG1 fused in-frame via L10 linker to Kv1.3 inhibitor peptide ShK[1-35]; SEQ ID NO: 78	–	0.015 ± 0.002	potently blocked human Kv1.3	potently inhibits IL-2 and IFNg production	potently inhibits IL-2 and IFNg production	nearly complete	nearly complete	little effect	binds to Kv1.3 overexpressing HEK 293 cells	little binding to untransfected cells	suppressed	suppressed	dose-dependent increase in the peptibody binding	does not elicit a response from untransfected HEK 293 cells
